# Data published in patent US12180485B2, “Repressible control of gene expression” (TRUSTEES OF BOSTON UNIVERSITY, priority 2020, dated 2024).
# “Also recorded” adds a separate entry of the source.
# B1: Cas13d: type VI-D CRISPR-associated RNA-guided ribonuclease Cas13d Ruminococcus flavefaciens, SEQ ID NO: 1 (protein, listed as Ruminococcus flavefaciens)
# chain: IEKKKSFAKGMGVKSTLVSGSKVYMTTFAEGSDARLEKIVEGDSIRSVNEGEAFSAEMADKNAGYKIGNAKFSHPKGYAVVANNPLYTGPVQQDMLGLKETLEKRYFGESADGNDNICIQVIHNILDIEKILAEYITNAAYAVNNISGLDKDIIGFGKFSTVYTYDEFKDPEHHRAAFNNNDKLINAIKAQYDEFDNFLDNPRLGYFGQAFFSKEGRNYIINYGNECYDILALLSGLRHWVVHNNEEESRISRTWLYNLDKNLDNEYISTLNYLYDRITNELTNSFSKNSAANVNYIAETLGINPAEFAEQYFRFSIMKEQKNLGFNITKLREVMLDRKDMSEIRKNHKVFDSIRTKVYTMMDFVIYRYYIEEDAKVAAANKSLPDNEKSLSEKDIFVINLRGSFNDDQKDALYYDEANRIWRKLENIMHNIKEFRGNKTREYKKKDAPRLPRILPAGRDVSAFSKLMYALTMFLDGKEINDLLTTLINKFDNIQSFLKVMPLIGVNAKFVEEYAFFKDSAKIADELRLIKSFARMGEPIADARRAMYIDAIRILGTNLSYDELKALADTFSLDENGNKLKKGKHGMRNFIINNVISNKRFHYLIRYGDPAHLHEIAKNEAVVKFVLGRIADIQKKQGQNGKNQIDRYYETCIGKDKGKSVSEKVDALTKIITGMNYDQFDKKRSVIEDTGRENAEREKFKKIISLYLTVIYHILKNIVNINARYVIGFHCVERDAQLYKEKGYDINLKKLEEKGFSSVTKLCAGIDETAPDKRKDVEKEMAERAKESIDSLESANPKLYANYIKYSDEKKAEEFTRQINREKAKTALNAYLRNTKWNVIIREDLLRIDNKTCTLFRNKAVHLEVARYVHAYINDIAEVNSYFQLYHYIMQRIIMNERYEKSSGKVSEYFDAVNDEKKYNDRLLKLLCVPFGYCIPRFKNLSIEALFDRNEAAKFDKEKKKVSGNS
# B2: LwaCas13b: Leptotrichia wadei Cas13a, SEQ ID NO: 2 (protein, listed as Leptotrichia wadei)
# chain: MKVTKVDGISHKKYIEEGKLVKSTSEENRTSERLSELLSIRLDIYIKNPDNASEEENRIRRENLKKFFSNKVLHLKDSVLYLKNRKEKNAVQDKNYSEEDISEYDLKNKNSFSVLKKILLNEDVNSEELEIFRKDVEAKLNKINSLKYSFEENKANYQKINENNVEKVGGKSKRNIIYDYYRESAKRNDYINNVQEAFDKLYKKEDIEKLFFLIENSKKHEKYKIREYYHKIIGRKNDKENFAKIIYEEIQNVNNIKELIEKIPDMSELKKSQVFYKYYLDKEELNDKNIKYAFCHFVEIEMSQLLKNYVYKRLSNISNDKIKRIFEYQNLKKLIENKLLNKLDTYVRNCGKYNYYLQVGEIATSDFIARNRQNEAFLRNIIGVSSVAYFSLRNILETENENGITGRMRGKTVKNNKGEEKYVSGEVDKIYNENKQNEVKENLKMFYSYDFNMDNKNEIEDFFANIDEAISSIRHGIVHFNLELEGKDIFAFKNIAPSEISKKMFQNEINEKKLKLKIFKQLNSANVFNYYEKDVIIKYLKNTKFNFVNKNIPFVPSFTKLYNKIEDLRNTLKFFWSVPKDKEEKDAQIYLLKNIYYGEFLNKFVKNSKVFFKITNEVIKINKQRNQKTGHYKYQKFENIEKTVPVEYLAIIQSREMINNQDKEEKNTYIDFIQQIFLKGFIDYLNKNNLKYIESNNNNDNNDIFSKIKIKKDNKEKYDKILKNYEKHNRNKEIPHEINEFVREIKLGKILKYTENLNMFYLILKLLNHKELTNLKGSLEKYQSANKEETFSDELELINLLNLDNNRVTEDFELEANEIGKFLDFNENKIKDRKELKKFDTNKIYFDGENIIKHRAFYNIKKYGMLNLLEKIADKAKYKISLKELKEYSNKKNEIEKNYTMQQNLHRKYARPKKDEKFNDEDYKEYEKAIGNIQKYTHLKNKVEFNELNLLQGLLLKILHRLVGYTSIWERDLRFRLKGEFPENHYIEEIFNFDNSKNVKYKSGQIVEKYINFYKELYKDNVEKRSIYSDKKVKKLKQEKKDLYIRNYIAHFNYIPHAEISLLEVLENLRKLLSYDRKLKNAIMKSIVDILKEYGFVATFKIGADKKIEIQTLESEKIVHLKNLKKKKLMTDRNSEELCELVKVMFEYKALE
# B3: aCaffVHH: VHH camelid antibody that specifically binds to caffeine, SEQ ID NO: 1980 (protein)
# VHH: EVQLQASGGGLVQAGGSLRLSCTASGRTGTIYSMAWFRQAPGKEREFLATVGWSSGITYYMDSVKGRFTISRDNAKNSAYLQMNSLKPEDTAVYYCTATRAYSVGYDYWGQGTQVTVSH
# B4: DNCR2: danoprevir/NS3 complex reader, SEQ ID NO: 163 (protein)
# chain: SSDEEEARELIERAKEAAERAQEAAERTGDPRVRELARELKRLAQEAAEEVKRDPSSSDVNEALKLIVEAIEAAVDALEAAERTGDPEVRELARELVRLAVEAAEEVQRNPSSSDVNEALHSIVYAIEAAIFALEAAERTGDPEVRELARELVRLAVEAAEEVQRNPSSRNVEHALMRIVLAIYLAEENLREAEESGDPEKREKARERVREAVERAEEVQRDPSGWLNH
# Legend:
# NS3a-genotype 1b = NS3a-genotype 1b (Hepatitis C virus genotype 1b, UniProt P26663, A1092G/F1173S/K1113A/P1112Q); details: disrupted by NS3a-targeting drugs; read-out: affinity of basal complex with NS3a-genotype 1b; cited from earlier work
# [1] = tested on: mCherry reporter and endogenous transcripts in HEK293T cells; details: cited from earlier work
# [2] = tested on: mCherry expression in HEK 293 FT cells; assay: Cas13d/gRNA mCherry knockdown, transient transfection, flow cytometry; type: cell-based; details: mCherry expression at various levels
# Text: FIG. 4A-4D is a series of schematics and graphs showing that Cas13d achieved robust transgene knockdown in HEK 293 FT cells. FIG. 4A is a schematic showing the necessary components for the CRISPR/Cas13d system. […] Minimizing either one component led to the abolishment of knockdown ability.
# In order to gain better understanding of the activity of the Cas13 effector/gRNA system, it was first examined how variation in the expression of each components (e.g., target, guide, and/or effector protein) relate to the knockdown efficiency of the system. HEK 293 FT cells were transiently transfected with the components of the system, and expression of the targeted gene, mCherry, was tested using flow cytometry. […] Another important feature of Cas13d is its ability to process pre-mature gRNA arrays and achieve multiplexed gene targeting. To verify this, pre-gRNAs with spacer regions flanked by 2 direct repeat sequences were transfected with Cas13d into HEK 293 FT cells. Target gene knockdown was later quantified and compared to that by mature gRNAs.
# [3] = tested on: bystander fluorescent proteins (GFP, BFP, iRFP); assay: Collateral cleavage of bystander fluorescent proteins by Cas13d during mCherry on-target knockdown; type: cell-based
# Text: FIG. 5A-5C is a series of schematics and graphs showing collateral activity of Cas13d. […] As the plasmid dosage of the bystander fluorescent protein decreased, bystander expression was knocked down at a higher level.
# The green fluorescent protein (GFP) was used initially as a transfection marker and as a non-targeted gene expression control. […] GFP was knocked down by Cas13d only when mCherry was present, confirming that this is a collateral activity instead of a result from non-specific gRNA design.
# [4] = tested on: luciferase and endogenous transcripts; details: cited from earlier work
# [5] = read-out: affinity (Kd); cited from earlier work
# apo NS3a = apo NS3a (Hepatitis C virus genotype 1a, UniProt P27958, T1100M/T1173A); details: cited from earlier work
# NS3a/danoprevir complex = NS3a/danoprevir complex (Hepatitis C virus genotype 1a, UniProt P27958, T1100M/T1173A); details: cited from earlier work
molecule,measurement,setting,value
GELDELVYLLDGPGYDPIHSD [ANR],Kd,NS3a-genotype 1b,10 nM
B1,knockdown efficiency,"[1]; HEK293T cells, mCherry reporter and endogenous transcripts",80-95%
same,knockdown of mCherry and endogenous gene expression,[1]; mammalian cells,85-90%
same,mCherry knockdown efficiency,[2],around 80%
same,effect on bystander iRFP expression,[3]; mCherry on-target knockdown by Cas13d,least disturbed; also recorded: minimally affected
same,effect on bystander BFP expression,[3]; mCherry targeting Cas13d system,strongly affected
same,effect on bystander GFP expression,"[3]; mCherry targeting Cas13d system, mCherry present",knocked down along with mCherry
B2,knockdown efficiency,[4],50%
B3,Kd,[5],500 nM
B4,binding to apo NS3a,apo NS3a,no detectable binding
same,selectivity over NS3a bound to the drugs grazoprevir or asunaprevir,NS3a/danoprevir complex,"> 20,000 fold"
same,binding to free danoprevir,"NS3a/danoprevir complex; free danoprevir, no NS3a",does not bind substantially
same,Kd,NS3a/danoprevir complex; read-out: affinity for the NS3a/danoprevir complex,0.036 nM
